Source: US20040141968A1 (published 2004)

Tests used:
[1] = molecular target: T1, HIV-1 gp120 (MN isolate) (HIV-1 (MN isolate), UniProt P05877 32-513, biotinylated when used as the labelled ligand on cells; unlabelled as competitor and on the SPR chip); test: flow cytometry; biotinylated protein on transfected HEK 293T cells, PE-streptavidin
T1 construct: domain: gp120; Unlabelled gp120 came from the NIBSC repository; also called biotinylated HIV-1 gp120; HIV-1 Env glycoprotein 120

[2] = molecular target: T2, biotinylated Bovine Serum Albumine (bovine, UniProt P02769 25-607); test: flow cytometry; biotinylated BSA on HEK 293T cells transfected with DC-SIGN, PE-streptavidin
T2 construct: also called BSA; biotinylated-BSA
T2 sequence (P02769 25-607 limits assumed): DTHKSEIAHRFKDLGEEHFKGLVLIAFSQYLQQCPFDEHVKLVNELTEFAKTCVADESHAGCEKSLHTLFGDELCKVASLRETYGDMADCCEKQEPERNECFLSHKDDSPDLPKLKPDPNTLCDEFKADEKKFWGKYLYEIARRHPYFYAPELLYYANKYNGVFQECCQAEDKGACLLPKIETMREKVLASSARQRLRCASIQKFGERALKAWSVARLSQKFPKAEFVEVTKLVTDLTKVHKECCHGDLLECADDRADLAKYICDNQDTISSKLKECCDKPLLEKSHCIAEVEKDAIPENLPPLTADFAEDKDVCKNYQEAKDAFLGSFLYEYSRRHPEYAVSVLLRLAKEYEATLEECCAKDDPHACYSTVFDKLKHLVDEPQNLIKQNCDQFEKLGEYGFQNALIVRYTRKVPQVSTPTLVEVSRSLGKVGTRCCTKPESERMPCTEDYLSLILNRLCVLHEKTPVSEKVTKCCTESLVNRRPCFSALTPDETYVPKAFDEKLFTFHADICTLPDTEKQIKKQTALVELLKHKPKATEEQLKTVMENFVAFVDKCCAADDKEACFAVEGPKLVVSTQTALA

[3] = molecular target: T2, biotinylated Bovine Serum Albumine; test: flow cytometry; biotinylated BSA on HEK 293T cells transfected with DC-SIGNR, PE-streptavidin
[4] = molecular target: T3, HSV-1 glycoprotein B, soluble (HSV-1, UniProt P10211 31-730); test: SPR; DC-SIGN CRD injected over immobilised HSV-1 gB
T3 construct: also called HSV-1 gB; gB HSV

[5] = molecular target: T1, HIV-1 gp120 (MN isolate); test: SPR (Biacore); DC-SIGN CRD injected over immobilised HIV-1 gp120; from koff/kon
[6] = molecular target: T1, HIV-1 gp120 (MN isolate); test: SPR (Biacore); DC-SIGN CRD injected over immobilised HIV-1 gp120; Langmuir fit, average

B1: human DC-SIGN (DC-Specific ICAM-Grabbing Nonintegrin) expressed at the cell surface (receptor, UniProt Q9NNX6 1-404, looked up)
chain: MSDSKEPRLQQLGLLEEEQLRGLGFRQTRGYKSLAGCLGHGPLVLQLLSFTLLAGLLVQVSKVPSSISQEQSRQDAIYQNLTQLKAAVGELSEKSKLQEIYQELTQLKAAVGELPEKSKLQEIYQELTRLKAAVGELPEKSKLQEIYQELTWLKAAVGELPEKSKMQEIYQELTRLKAAVGELPEKSKQQEIYQELTRLKAAVGELPEKSKQQEIYQELTRLKAAVGELPEKSKQQEIYQELTQLKAAVERLCHPCPWEWTFFQGNCYFMSNSQRNWHDSITACKEVGAQLVVIKSAEEQNFLQLQSSRSNRFTWMGLSDLNQEGTWQWVDGSPLLPSFKQYWNRGEPNNVGEEDCAEFSGNGWNDDKCNLAKFWICKKSAASCSRDEEQFLSPAPATPNPPPA
notes: whole, on cells; On transduced THP-1, HeLa and HEK 293T cells, and naturally on monocyte-derived dendritic cells; For HEK 293T the cDNA was in pcDNA3 myc-His (version A); also called CD209; DC-SIGN^+ THP-1 cells
binding result [1]: binds | binding result [2]: no binding

B2: DC-SIGNR expressed on transiently transfected HEK 293T cells (receptor, human, UniProt Q9H2X3 1-399, looked up)
chain: MSDSKEPRVQQLGLLEEDPTTSGIRLFPRDFQFQQIHGHKSSTGCLGHGALVLQLLSFMLLAGVLVAILVQVSKVPSSLSQEQSEQDAIYQNLTQLKAAVGELSEKSKLQEIYQELTQLKAAVGELPEKSKLQEIYQELTRLKAAVGELPEKSKLQEIYQELTRLKAAVGELPEKSKLQEIYQELTRLKAAVGELPEKSKLQEIYQELTELKAAVGELPEKSKLQEIYQELTQLKAAVGELPDQSKQQQIYQELTDLKTAFERLCRHCPKDWTFFQGNCYFMSNSQRNWHDSVTACQEVRAQLVVIKTAEEQNFLQLQTSRSNRFSWMGLSDLNQEGTWQWVDGSPLSPSFQRYWNSGEPNNSGNEDCAEFSGSGWNDNRCDVDNYWICKKPAACFRDE
notes: whole, on cells
binding result [1]: binds | binding result [3]: no binding

B3: recombinant soluble CRD of DC-SIGN (amino acids 254-404) (receptor)
chain: HPCPWEWTFFQGNCYFMSNSQRNWHDSITACKEVGAQLVVIKSAEEQNFLQLQSSRSNRFTWMGLSDLNQEGTWQWVDGSPLLPSFKQYWNRGEPNNVGEEDCAEFSGNGWNDDKCNLAKFWICKKSAASCSRDEEQFLSPAPATPNPPPA
notes: range 254-404; Purified on Ni-NTA and mannose-agarose; also called DC-SIGN CRD; recombinant soluble CRD domain of DC-SIGN
binding result [4]: no binding (tested: 0.13 to 1 µM) | Kd [5]: 300 nM | koff [6]: 0.00101 s⁻¹ | kon [6]: 3330 M⁻¹ s⁻¹
